Data as given in patent publication US7087392B2, “Antiproliferative SgK reagents and methods” (The Regents of the University of California, priority 1999, dated 2006).

Tested on: mammary tumor cells
Assay: Transient cell foci growth assay of transfected mammary tumor cells
Assay type: cell-based
Conditions: transfected expression vector, G418 selection
From the text: Functional evidence for a direct role of sgk in the glucocorticoid anti-proliferative pathway. In both the Con8 mammary epithelial tumor cells (from which Sgk was originally cloned) as well as human MCF-7 breast cancer cells (which were originally derived from a pleural effusion of a metastatic human breast adenocarcinoma) glucocorticoids induce a G1 block in cell cycle progression and strongly stimulate sgk transcript and protein production. […] To initially test whether Sgk has an anti-proliferative function and perhaps mediates the glucocorticoid growth inhibitory response, the full length rat or human wild type sgk cDNA was inserted downstream of the cytomegalovirus (CMV) promoter in an expression vector that also encodes the neomycin resistance gene. […] Transfection competent cells were selected in 0.5 mg/ml of the G418 neomycin derivative for two weeks.
Expression vectors encoding several point mutants or truncations of Sgk were transfected into the mammary tumor cells and cell growth monitored by the cell foci assay.
Transient transfection and rapid screen of the sgk expression vectors for the anti-proliferative response in rodent and human mammary tumor cells. A transient cell foci growth assay is employed to rapidly screen the various Sgk constructs to define the domains that mediate the anti-proliferative response in rat and human mammary tumor cells using our optimized conditions. The advantage of this assay is that many different mutant Sgk expression vectors can be simultaneously compared for their growth inhibitory effects. Also, this assay can be used to rapidly assess the proliferative effects of combinations of Sgk and its interacting proteins or substrates. Populations of human MCF-7 breast cancer cells or rat Con8 mammary tumor cells are transfected by the lipofectin transfection procedures and cultured in normally cytotoxic concentrations (750 μg/ml) of the G418 neomycin derivative to recover transfection competent cells. Approximately 5000 transfected cells are cultured as colonies on plastic, and after one to two weeks are fixed and stained in crystal violet/formalin to visualize the cell colonies. The effects on cell proliferation are quantitated by simply counting the resulting cell colonies or by scanning the total cell density on each plate. To provide a control for the fidelity of the cell foci assays, in each experiment, cells transfected with the control vectors (no Sgk sequences) are treated with or without 1 μM dexamethasone because the cells are growth suppressed by this synthetic glucocorticoid. […]

B1: K127M: Sgk with lysine 127 in the ATP binding domain substituted with methionine; kinase dead (protein, UniProt O00141 1-431, looked up, variant K127M)
Serine/threonine-protein …: MTVKTEAAKGTLTYSRMRGMVAILIAFMKQRRMGLNDFIQKIANNSYACKHPEVQSILKISQPQEPELMNANPSPPPSPSQQINLGPSSNPHAKPSDFHFLKVIGKGSFGKVLLARHKAEEVFYAVMVLQKKAILKKKEEKHIMSERNVLLKNVKHPFLVGLHFSFQTADKLYFVLDYINGGELFYHLQRERCFLEPRARFYAAEIASALGYLHSLNIVYRDLKPENILLDSQGHIVLTDFGLCKENIEHNSTTSTFCGTPEYLAPEVLHKQPYDRTVDWWCLGAVLYEMLYGLPPFYSRNTAEMYDNILNKPLQLKPNITNSARHLLEGLLQKDRTKRLGAKDDFMEIKSHVFFSLINWDDLINKKITPPFNPNVSGPNDLRHFDPEFTEEPVPNSIGKSPDSVLVTASVKEAAEAFLGFSYAPPTDSFL
reduction in number of cell foci compared to the vector control: ~2.5 fold
